For 1 protein, kcat/Km, Km and kcat results are on record in publication PMC8317952.

Substrate in data set [1]: CCCCCCCCCCCCCCOS(=O)(=O)O
The data set is described as follows: Steady-state NADPH oxidation. It is filed as biochemical, Bacillus megaterium. The following applies: other: rates of NADPH oxidation, 23 °C, pH 7.4.

Substrate in data set [2]: CCCCCCCCCCCCCCCC(=O)O
The data set is described as follows: Steady-state NADPH oxidation. It is filed as biochemical, Bacillus megaterium. The following applies: other: rates of NADPH oxidation, hyperbolic fit, 23 °C, pH 7.4.

Several values for one entry are separate records, joined by “and”; a condition that tells them apart may be missing. Equal entries are not always repeated.

B1: P450BM-3 (Priestia megaterium NBRC 15308 = ATCC 14581) (protein)
chain: MTIKEMPQPKTFGELKNLPLLNTDKPVQALMKIADELGEIFKFEAPGRVTRYLSSQRLIKEACDESRFDKNLSQALKFVRDFAGDGLFTSWTHEKNWKKAHNILLPSFSQQAMKGYHAMMVDIAVQLVQKWERLNADEHIEVPEDMTRLTLDTIGLCGFNYRFNSFYRDQPHPFITSMVRALDEAMNKLQRANPDDPAYDENKRQFQEDIKVMNDLVDKIIADRKASGEQSDDLLTHMLNGKDPETGEPLDDENIRYQIITFLIAGHETTSGLLSFALYFLVKNPHVLQKAAEEAARVLVDPVPSYKQVKQLKYVGMVLNEALRLWPTAPAFSLYAKEDTVLGGEYPLEKGDELMVLIPQLHRDKTIWGDDVEEFRPERFENPSAIPQHAFKPFGNGQRACIGQQFALHEATLVLGMMLKHFDFEDHTNYELDIKETLTLKPEGFVVKAKSKKIPLGGIPSPSTEQSAKKVRKKAENAHNTPLLVLYGSNMGTAEGTARDLADIAMSKGFAPQVATLDSHAGNLPREGAVLIVTASYNGHPPDNAKQFVDWLDQASADEVKGVRYSVFGCGDKNWATTYQKVPAFIDETLAAKGAENIADRGEADASDDFEGTYEEWREHMWSDVAAYFNLDIENSEDNKSTLSLQFVDSAADMPLAKMHGAFSTNVVASKELQQPGSARSTRHLEIELPKEASYQEGDHLGVIPRNYEGIVNRVTARFGLDASQQIRLEAEEEKLAHLPLAKTVSVEELLQYVELQDPVTRTQLRAMAAKTVCPPHKVELEALLEKQAYKEQVLAKRLTMLELLEKYPACEMKFSEFIALLPSIRPRYYSISSSPRVDEKQASITVSVVSGEAWSGYGEYKGIASNYLAELQEGDTITCFISTPQSEFTLPKDPETPLIMVGPGTGVAPFRGFVQARKQLKEQGQSLGEAHLYFGCRSPHEDYLYQEELENAQSEGIITLHTAFSRMPNQPKTYVQHVMEQDGKKLIELLDQGAHFYICGDGSQMAPAVEATLMKSYADVHQVSEADARLWLQQLEEKGRYAKDVWAG
Regarding B1, the kcat/Km (as a rule, the turnover number divided by the Michaelis constant) in data set [1] is 7.7e+06 M⁻¹ s⁻¹ and 3e+06 M⁻¹ s⁻¹. For the same protein, in data set [1] (hyperbolic fit), the Km (in general, the concentration of substrate that gives half-maximal velocity) stood at 4.2 ± 0.6 µM; the kcat (usually the maximal rate divided by the concentration of active sites) is 32.33 s⁻¹; the kcat/Km came out at 7.67e+06 ± 1e+06 M⁻¹ s⁻¹. Besides, the Km in data set [2] worked out at 67 ± 8 µM.
